The text below walks through data of PMC2175144 (The Journal of Cell Biology, 2000).

The target in series [1] is L1 FN3 putative C-C′ loop peptide …^852, wild type (human). The series is described as follows: SDS-PAGE of peptides.
Series [2] deals with the molecule itself. The series is described as follows: SDS-PAGE without boiling, immunoblot. For orientation: In western blotting, separated proteins are transferred to a membrane and probed.
The series “SEC” deals with the molecule itself. In words: SEC. (In general: In gel filtration, larger molecules generally elute earlier.)

In the case of “L1 FN3 putative C-C′ loop peptide …^852, wild type”, the stoichiometry N – broadly, the number of molecules, sites or subunits per partner or assembly – in series [1] amounted to 3.

B1: L1 FN-like repeats 1-3 (FN1-3) fusion protein, as run on SDS-PAGE (domain or fragment, human, UniProt P32004 615-916, looked up)
chain: VPRLVLSDLHLLTQSQVRVSWSPAEDHNAPIEKYDIEFEDKEMAPEKWYSLGKVPGNQTSTTLKLSPYVHYTFRVTAINKYGPGEPSPVSETVVTPEAAPEKNPVDVKGEGNETTNMVITWKPLRWMDWNAPQVQYRVQWRPQGTRGPWQEQIVSDPFLVVSNTSTFVPYEIKVQAVNSQGKGPEPQVTIGYSGEDYPQAIPELEGIEILNSSAVLVKWRPVDLAQVKGHLRGYNVTYWREGSQRKHSKRHIHKDHVVVPANTTSVILSGLRPYSSYHLEVQAFNGRGSGPASEFTFSTPEG
With B1, in series [2], the “stoichiometry N” value came out at 3.

B2: L1 third FN-like repeat (FN3), GST fusion protein, wild type (domain or fragment, human, UniProt P32004 814-916, looked up)
chain: AIPELEGIEILNSSAVLVKWRPVDLAQVKGHLRGYNVTYWREGSQRKHSKRHIHKDHVVVPANTTSVILSGLRPYSSYHLEVQAFNGRGSGPASEFTFSTPEG
In the case of B2, the “stoichiometry N” value in “SEC” was at least 3.
